This data set can be described thus: protein stability index of a GFP-peptide fusion (GPS, HEK-293T) (PSI 1-6); higher = more stable.
Setting [1] is: treatment: DMSO, c terminus: a fixed tail appended.
Setting [2] is: treatment: MLN4924 1 uM, 8 h, c terminus: a fixed tail appended.
Where [3] appears, read: treatment: DMSO, c terminus: native.
[4] abbreviates: treatment: MLN4924 1 uM, 8 h, c terminus: native.

In the supplement of paper PMC10567573 one finds protein stability index data, which are given here for 72 sequences.

± gives the standard deviation.
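Note: 24-mer peptide tiles fused after GFP, lentivirally expressed, FACS-sorted into six equal bins by GFP/DsRed ratio, decoded by Illumina sequencing, PSI is the read-weighted mean bin number.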

In the case of EMHTALMEACMDGHVEVARLLLDS [ANKRD17], the protein stability index by setting is: under setting [1], 2.38 ± 0.22; under setting [2], 2.55 ± 0.28.
Turning to EMMRFIYTGRAPNLDKMADNLLAA [SPOPL], the protein stability index was 2.42 ± 0.29 under setting [1] and 2.01 ± 0.19 under setting [2].
In the case of ENTAETITRVLYEVFIEWGISAKV [ZBED1], the protein stability index by setting is: under setting [1], 2.82 ± 0.088; under setting [2], 2.78 ± 0.72.
With EQGFQEGVPNASVIMQVPERIVVA [MFF], the protein stability index is 3.76 ± 0.35 under setting [1] and 3.83 ± 0.042 under setting [2].
For ERFIQYLASRNTLFNLSNFLDKSG [SNAP91], the protein stability index was 2.4 ± 0.26 under setting [1] and 2.53 ± 0.61 under setting [2].
As for ERHKLKRQDADAWTLYKILDSCKQ [SMG5], the protein stability index came out at 2.75 ± 0.21 under setting [1] and 2.9 ± 0.36 under setting [2].
ERHSDLPPLNPTSWWADLRALARN [SPNS1]: the protein stability index runs as follows: under setting [1], 3.34 ± 0.5; under setting [2], 3.34 ± 0.38.
Regarding ERLAHSRAAAAAAVAAATAAVEGS [KCNA4], the protein stability index runs as follows: under setting [1], 4.38 ± 0.2; under setting [2], 4.25 ± 0.29.
Take ERSARYQYFVVDPMAEYNMPQYIL [PTPRD]: the protein stability index by setting is: under setting [1], 2.01 ± 0.28; under setting [2], 2.74 ± 0.99.
As to ERSSFYSCAGGRLFQQSCPTGLVF [CHIT1], the protein stability index under setting [1] turned out to be 1.99 ± 0.15 and the protein stability index under setting [2] turned out to be 2.13 ± 0.18.
In the same order, the values of ESASSQSGCLRISIQKLSNESRYM [NECAB1] are 2.76 ± 0.2 and 2.78 ± 0.31.
For ESEPPAPNIRNMAPNSLSAPTMLH [TRAF3IP2] the same measures were 4.54 ± 0.24 and 4.37 ± 0.34.
For the sequence ESGLRSLRLFQKLEENGDLYLAV [WDR41], the protein stability index is, setting by setting: under setting [3], 2.08 ± 0.2; under setting [4], 2.16 ± 0.36.
For the sequence ESGTKGLFAGFLPRIIKAAPSCAI [SLC25A39], the protein stability index came to 2.24 ± 0.12 under setting [1] and 2.47 ± 0.28 under setting [2].
On to ESHEVPGTLSMGVPQIFKYGETCF [ZNF24], for which the protein stability index came to 2.74 ± 0.39 under setting [1] and 2.89 ± 0.73 under setting [2].
With ESLREELICLKKNHEEEVNTLRSQ [KRT34], the protein stability index reads like this: under setting [1], 4.91 ± 0.23; under setting [2], 5.04 ± 0.23.
Sequence ESRAPSPLLHKDSASLEVVKKDHV [CBY2] had a protein stability index under setting [1] of 5.18 ± 0.3 and a protein stability index under setting [2] of 5.27 ± 0.24.
In the same order, the values of ESTTVVTTQSAEVGAAETTLTELR [KRT18] are 5.37 ± 0.076 and 5.29 ± 0.22.
For ETDHLSMEEEDPMPRQISRQSSVT [TPRG1] the same measures were 5.37 ± 0.21 and 5.28 ± 0.36.
Consider ETEKEEEEEDREEEDENGLPRRRG [NEUROD6], for which the protein stability index reads like this: under setting [1], 5.815 ± 0.053; under setting [2], 5.62 ± 0.39.
In the case of ETLKHIKATEPTETVQTWIELLTG [GOLPH3L], the protein stability index runs as follows: under setting [1], 2.59 ± 0.2; under setting [2], 2.86 ± 0.22.
For ETQTLTGWSKGFIGMHREMQVNPI [RHOBTB1] the same measures were 2.89 ± 0.26 and 3.12 ± 0.23.
ETRRRMEMAFNTRCKEENTIILQQ [NLN]: the protein stability index under setting [1] was 2.66 ± 0.36 and the protein stability index under setting [2] was found to be 2.98 ± 0.23.
Take ETWNPFKLQYQLRNVRERIAKNLV [GOLPH3L]: the protein stability index is, setting by setting: under setting [1], 2.37 ± 0.34; under setting [2], 2.37 ± 0.24.
In the same order, the values of EVALDKGCSQFRLAVLDWNQRAMD [SAT2] are 2.94 ± 0.48 and 2.95 ± 0.28.
Regarding EVRLVPVSFEDPEFKSSFSQSFSL [ATE1], the protein stability index under setting [1] is 2.56 ± 0.41 and the protein stability index under setting [2] came to 2.74 ± 0.39.
Regarding FACLSVLFVTVTAVNLSVSTLPSL [KCNG1], the protein stability index is, setting by setting: under setting [1], 3.15 ± 0.28; under setting [2], 3.46 ± 0.23.
In the same order, the values of FAIPVGSGLGYIAGSKVKDMAGDW [SPNS1] are 2.35 ± 0.28 and 2.21 ± 0.44.
In the case of FAPFIVYYFIMACDQYSCALTGPV [DHCR7], the protein stability index was 3.01 ± 0.077 under setting [1] and 3.2 ± 0.2 under setting [2].
For FEMLSGFPPFFDDNPFGIYQKILA [PRKX] the same measures were 2.47 ± 0.45 and 2.29 ± 0.3.
In the same order, the values of FFYDCSNNPISEHFHPTVIGESMY [TENT5C] are 2.16 ± 0.43 and 2.26 ± 0.16.
With FGGMKSSGIGREGAKDSYDFFTEI [ALDH8A1], the protein stability index reads like this: under setting [1], 2.22 ± 0.66; under setting [2], 2.52 ± 0.27.
For the sequence FGMAKIDNLLQEMLLGGSPSDAPH [HNF4A], the protein stability index is, setting by setting: under setting [1], 2.8 ± 0.25; under setting [2], 2.76 ± 0.28.
On to FGRLVANVLKSYIGLGHIYSGTFA [CLCN6], for which the protein stability index stood at 2.94 ± 0.42 under setting [1] and 2.79 ± 0.33 under setting [2].
As for FHCLWDDSFPEGPERLHAIKEQLI [HDAC6], the protein stability index by setting is: under setting [1], 2.47 ± 0.26; under setting [2], 2.41 ± 0.33.
As for FHEDGPQGPGGDEDDDEEDTDKLL [PSD2], the protein stability index worked out at 5.55 ± 0.32 under setting [1] and 5.59 ± 0.2 under setting [2].
In the same order, the values of FIARLQGSILQFNPEVGIFVSIAQ [SMG5] are 2.77 ± 0.59 and 2.64 ± 0.45.
For the sequence FISVFSNLLESKADGIEVSYNACG [ZER1], the protein stability index is, setting by setting: under setting [1], 2.3 ± 0.49; under setting [2], 2.17 ± 0.17.
As for FIVDILQFLDIGPDVTRVGLLQYG [MATN2], the protein stability index by setting is: under setting [1], 3.11 ± 0.51; under setting [2], 2.94 ± 0.82.
For FLCDLYPLLKLACTNTYVTGLSMI [OR4A15], the protein stability index reads like this: under setting [1], 2.82 ± 0.23; under setting [2], 3.25 ± 0.45.
Regarding FLKAVLRQERVSLYPFQIHSIALS [CDS1], the protein stability index by setting is: under setting [1], 2.01 ± 0.23; under setting [2], 2.42 ± 0.91.
FMRTSVKISYIGLMTQSSLETHHY [TMEM106C] returned a protein stability index under setting [1] of 3.07 ± 0.75 and a protein stability index under setting [2] of 2.63 ± 0.38.
Turning to FNCIRAAIAPFQSAGSPPELQGLP [NET1], the protein stability index reads like this: under setting [1], 2.67 ± 0.2; under setting [2], 2.72 ± 0.2.
Consider FNLTPPICEQAEYHMFQREKVEVQ [KCNAB2], for which the protein stability index is, setting by setting: under setting [1], 3.72 ± 0.24; under setting [2], 3.88 ± 0.17.
For FPVSVTQQSPAAVSMETYHVTLTL [C2CD2L] the same measures were 3.29 ± 0.38 and 2.9 ± 0.36.
Take FRVAKKRAPKVLGTTLVVGLLAGV [GDAP1]: the protein stability index is 2.47 ± 0.86 under setting [1] and 1.82 ± 0.61 under setting [2].
Take FSGTPPPPVLSFRLVHTTAIEHFQ [FCHO1]: the protein stability index under setting [1] is 2.32 ± 0.24 and the protein stability index under setting [2] came to 2.28 ± 0.19.
Turning to FSKQIVLRGKSIKRAPGEETEKEE [NEUROD6], the protein stability index came to 4.94 ± 0.28 under setting [1] and 5.1 ± 0.34 under setting [2].
Consider FSSNIHTYHVGKQCFFNGVFLGNK [SPATS1], for which the protein stability index is, setting by setting: under setting [1], 2.56 ± 0.39; under setting [2], 2.05 ± 0.32.
For FVKDPQGRIIAVFKPKNEEPYGHL [PI4K2A] the same measures were 2.32 ± 0.26 and 2.9 ± 0.23.
Turning to FYMRTNPFYPEVELNFISVFWPQL [MMP1], the protein stability index under setting [1] was found to be 3.11 ± 0.38 and the protein stability index under setting [2] was 2.89 ± 0.25.
Turning to FYTAITKKIFKSHLKSSRNSTSVK [P2RY14], the protein stability index under setting [1] worked out at 2.18 ± 0.33 and the protein stability index under setting [2] amounted to 2.32 ± 0.55.
As to GAARLALLQGAGLDVERWLKPAMT [FCHSD1], the protein stability index under setting [1] came to 2.5 ± 0.53 and the protein stability index under setting [2] is 2.45 ± 0.36.
For GAHWMRQLVSFQKLKLTNNHLDPF [TBX5] the same measures were 2.18 ± 0.21 and 2.19 ± 0.45.
For GAQFEGEKGRALQIRDWRGGRLEN [ZSWIM9] the same measures were 4.24 ± 0.23 and 3.87 ± 0.57.
GARPLSTRVPRAAIVFTDGRAQDD [MATN2] came in with a protein stability index under setting [2] of 4.48 ± 0.68.
For the sequence GASDNSIIMWDIGGRKGRTLLLQG [WDFY1], the protein stability index is, setting by setting: under setting [1], 2.15 ± 0.36; under setting [2], 2.19 ± 0.35.
Take GATGECQNFLDPGYPLPKLDMNFS [ZNF449]: the protein stability index reads like this: under setting [1], 3.47 ± 0.2; under setting [2], 3.67 ± 0.29.
Regarding GCCKRRYLQKIEEFAEMVEREEED [KCNG1], the protein stability index reads like this: under setting [1], 3.57 ± 0.23; under setting [2], 4 ± 0.53.
For the sequence GCQPEDRRRRIIINVGGIKYSLPW [KCNG1], the protein stability index was 2.36 ± 0.52 under setting [1] and 2.5 ± 0.44 under setting [2].
As for GDWSAFNQAPSGPVASSGEFFGSA [CLINT1], the protein stability index came out at 4.16 ± 0.26 under setting [1] and 4.31 ± 0.18 under setting [2].
Consider GGAAWSIGAAPFSGRRNWCSYVVT [EMID1], for which the protein stability index under setting [1] came out at 1.94 ± 0.58 and the protein stability index under setting [2] is 2.08 ± 0.095.
GGAVVANYPYDKSFEHRVRGVRRT [CPN1]: the protein stability index runs as follows: under setting [1], 4.25 ± 0.29; under setting [2], 4.29 ± 0.15.
GGSSAVGQFVSLDGAGKTPTLGGG [BRF1] came in with a protein stability index under setting [1] of 4.34 ± 0.49 and a protein stability index under setting [2] of 4.82 ± 0.33.
In the same order, the values of GGTLFSLEEGSSFWNQGLTWKVLF [CLCN6] are 2.7 ± 0.46 and 2.6 ± 0.81.
As for GGYNLASVSVWDLAAPSLHVKEQL [TLE6], the protein stability index reads like this: under setting [1], 2.38 ± 0.16; under setting [2], 2.68 ± 0.33.
Turning to GHNFCRGCVSRCWEVQVSPTCPVC [TRIM35], the protein stability index under setting [1] turned out to be 3.86 ± 0.22 and the protein stability index under setting [2] was found to be 3.83 ± 0.38.
In the case of GHSHHSHHGHPSHQSHSLPNRRH [C10orf62], the protein stability index under setting [3] is 2.97 ± 0.49 and the protein stability index under setting [4] came to 3.71 ± 0.35.
Turning to GIFLFCVCVIAIGVVQALIVGYAF [TMEM175], the protein stability index by setting is: under setting [1], 2.6 ± 0.56; under setting [2], 2.33 ± 0.56.
As to GISAKVFGATTNYGKDIVKACSLL [ZBED1], the protein stability index is, setting by setting: under setting [1], 2.33 ± 0.4; under setting [2], 2.26 ± 0.35.
Turning to GISNALHRLKLRLAIQEMVSLTSP [PPFIA4], the protein stability index reads like this: under setting [1], 2.46 ± 0.22; under setting [2], 2.18 ± 0.13.
As to GKAAQAGVAVGDWVLSIDGENAGS [PDLIM7], the protein stability index amounted to 3.97 ± 0.24 under setting [1] and 4.2 ± 0.42 under setting [2].
